Changes are numbered by the printed parent chain. Several values for one entry are separate records, joined by “and”; a condition that tells them apart may be missing. Equal entries are not always repeated.
T1: MUC1 peptide (non-glycosylated), biotinylated (N-terminal Biotin-PEG2; C-terminal amide)
T1 construct: also called 36-4; 7-36-4
T1 peptide: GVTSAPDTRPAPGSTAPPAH

B1: humanised anti-TnMUC1 scFv protein 11P6 (89A), L0-H5 (scFv)
scFv: DIVMTQSPDSLAVSLGERATINCKSSQSLLNSGDQKNYLTWYQQKPGQPPKLLIYWASTRESGVPDRFSGSGSGTDFTLTISSLQAEDVAVYYCQNDYSYPLTFGQGTKLEIKGGGGSGGGGSGGGGSGGGGSQVQLVQSGAEVKKPGSSVKVSCKASGYTFTDHAIHWVRQAPGQGLEWIGHFSPGNTDIKYNDKFKGRATLTVDRSTSTAYMELSSLRSEDTAVYFCKTSTFFFDYWGQGTTVTVSSAAAHHHHHH
notes: Supernatant of construct 6D6 in the Octet assay; purified 11P6 elsewhere; also called 6D6
B2: humanised anti-TnMUC1 scFv protein 13P18 (19A), L2-H5 (scFv)
scFv: B1 scFv with Y55F
notes: Supernatant of construct 6D18 in the Octet assay; purified 13P18 elsewhere. scFv of CAR MB025; also called 6D18
B3: humanised anti-TnMUC1 scFv protein 16P4 (82A), L0-H3 (scFv)
scFv: B1 scFv with I181M, A201V, L203I, V205A, R207K, F228Y
notes: Supernatant of construct 6D4 in the Octet assay; purified 16P4 elsewhere. scFv of CAR MB021; also called 6D4
B4: humanised anti-TnMUC1 scFv protein 11P12 (94A), L1-H5 (scFv)
scFv: B1 scFv with D1E, I2L
notes: Supernatant of construct 6D12 in the Octet assay; purified 11P12 elsewhere; also called 6D12
B5: humanised anti-TnMUC1 scFv protein 9P1 (88A), VL-VH humanised control (scFv)
scFv: B1 scFv with L110V, P147T, G177A, I181M, A201V, T209M, V226M, F228Y, T244M
notes: Control scFv designed from a humanised antibody of WO2015/159076 (10D2 is said to come from Ab2, so 10D1 by implication from Ab1); Neat supernatant of construct 10D1 in the Octet assay; purified protein 9P1 in Biacore and flow cytometry; also called 10D1
B6: humanised anti-TnMUC1 scFv protein 13P24 (77A), L3-H5 (scFv)
scFv: B1 scFv with D1E, I2L, Y55F
notes: Two purification lots (13P24, 28P24); also called 28P24; 6D24
B7: humanised anti-TnMUC1 scFv H3-L3, VH-VL orientation (construct 6D25) (scFv)
scFv: QVQLVQSGAEVKKPGSSVKVSCKASGYTFTDHAIHWVRQAPGQGLEWMGHFSPGNTDIKYNDKFKGRVTITADKSTSTAYMELSSLRSEDTAVYYCKTSTFFFDYWGQGTTVTVSSGGGGSGGGGSGGGGSGGGGSELVMTQSPDSLAVSLGERATINCKSSQSLLNSGDQKNYLTWYQQKPGQPPKLLIFWASTRESGVPDRFSGSGSGTDFTLTISSLQAEDVAVYYCQNDYSYPLTFGQGTKLEIKAAAHHHHHHH
B8: humanised anti-TnMUC1 scFv L2-H1 (construct 6D14) (scFv)
scFv: B1 scFv with Y55F, I181M, A201V, L203I, V205A, R207K, F228Y, K230A, T231R
B9: humanised anti-TnMUC1 scFv L1-H1 (construct 6D8) (scFv)
scFv: B1 scFv with D1E, I2L, I181M, A201V, L203I, V205A, R207K, F228Y, K230A, T231R
B10: humanised anti-TnMUC1 scFv L0-H1 (construct 6D2) (scFv)
scFv: B1 scFv with I181M, A201V, L203I, V205A, R207K, F228Y, K230A, T231R
B11: humanised anti-TnMUC1 scFv L3-H3 (construct 6D22) (scFv)
scFv: B1 scFv with D1E, I2L, Y55F, I181M, A201V, L203I, V205A, R207K, F228Y
B12: humanised anti-TnMUC1 scFv L3-H1 (construct 6D20) (scFv)
scFv: ELVMTQSPDSLAVSLGERATINCKSSQSLLNSGDQKNYLTWYQQKPGQPPKLLIFWASTRESGVPDRFSGSGSGTDFTLTISSLQAEDVAVYYCQNDYSYPLTFGQGTKLEIKGGGGSGGGGSGGGGSGGGGSQVQLVQSGAEVKKPGSSVKVSCKASGYTFTDHAIHWVRQAPGQGLEWMGHFSPGNTDIKYNDKFKGRVTITADKSTSTAYMELSSLRSEDTAVYYCARSTFFFDYWGQGTTVTVSSAAAHHHHHH
B13: humanised anti-TnMUC1 scFv L3-H2 (construct 6D21) (scFv)
scFv: B12 scFv with M181I, V201A, I203L, A205V, K207R
B14: humanised anti-TnMUC1 scFv L2-H4 (construct 6D17) (scFv)
scFv: B12 scFv with E1D, L2I, Y228F
B15: humanised anti-TnMUC1 scFv L0-H4 (construct 6D5) (scFv)
scFv: B12 scFv with E1D, L2I, F55Y, Y228F
B16: humanised anti-TnMUC1 scFv L3-H4 (construct 6D23) (scFv)
scFv: B12 scFv with Y228F
B17: humanised anti-TnMUC1 scFv L2-H2 (construct 6D15) (scFv)
scFv: B1 scFv with Y55F, F228Y, K230A, T231R
B18: humanised anti-TnMUC1 scFv L1-H2 (construct 6D9) (scFv)
scFv: B1 scFv with D1E, I2L, F228Y, K230A, T231R
B19: humanised anti-TnMUC1 scFv L0-H2 (construct 6D3) (scFv)
scFv: B1 scFv with F228Y, K230A, T231R

What follows are binders tested against T2, STnMUC1 peptide, biotinylated (assay: SPR (Biacore T200): biotinylated STnMUC1 peptide (35-1) captured on CAP chip, scFv as analyte).
T2 construct: also called STn peptide; 35-1

| Kd | Binder |
| --- | --- |
| 199 nM | B1 |
| 196 nM | B2 |
| 536 nM | B3 |

The binders below were run against T2, STnMUC1 peptide, biotinylated (assay: SPR (Biacore T200), STnMUC1 peptide on CAP chip, scFv as analyte).
Procedure: The CAP chip (from the Biotin CAPture kit) was docked into BIAcore T200 instrument to hydrate overnight, as per manufacturer instructions. When the chip is docked (for the first time or after storage), the surface of the sensor chip needs to be conditioned with 3×1 minute injections of Regeneration Solution (from the Biotin CAPture kit). Regeneration Solution was prepared by mixing 3 parts of Regeneration Stock 1 (8M Guanidine-HCl) with 1-part Regeneration Stock 2 (1M NaOH). Both the reference and active flow cells of the sensor chip were conditioned with 3×60 second injections of Regeneration Solution at a flow rate of 10 μl/min.
(§1) Biotin CAPture Reagent was captured onto the active and reference flow cells for 300 seconds at 2 μl/min. The biotinylated peptides were diluted in BIAcore Running Buffer (as described above) and captured onto the active flow cell only, at a flow rate of 10 μl/min to obtain the capture level calculated in the equation detailed above.

| fold lower affinity than the murine 5E5 scFv protein | Binder |
| --- | --- |
| ~10 fold | B2 |
| ~10 fold | B4 |
| ~10 fold | B3 |

Each binder was assayed against T3, TnMUC1 peptide (fully glycosylated), biotinylated (assay: SPR (Biacore T200), peptide 36-2 on CAP chip, scFv as analyte, 1:1 fit; single run).
T3 construct: Two batches (36-2 and 65-1) of the same peptide; also called 36-2; 7-36-2
Procedure: as §1
(§2) The humanised anti-TnMUC1 scFv proteins were passed over the reference and active flow cells at 500, 125, 31.25, 7.8, 1.9, 0 nM for binding to TnMUC1 and MUC1 peptides with a 300 second association followed by a 900 seconds dissociation with BIAcore Running Buffer at a flow rate of 30 μl/min.
(§3) BIAcore T200 Evaluation Software v3.0 was used to analyse the data. The data obtained has been fitted to a 1:1 binding model with the Rmax parameter set to local. As this is a capture experiment, a local Rmax parameter would be truly reflective as the protein is recaptured every time and theoretically surface is slightly different at each recapture, possibly producing slightly different capture each time. Kinetic Parameters (KD, kd and kₐ) were calculated for all the humanised anti-TnMUC1 scFv proteins.

| Kd | koff | kon | Binder |
| --- | --- | --- | --- |
| 25.7 nM and 27.6 nM | 0.00138 s⁻¹ and 0.00135 s⁻¹ | 53800 M⁻¹ s⁻¹ and 49100 M⁻¹ s⁻¹ | B1 |
| 67.6 nM and 74.2 nM | 0.00131 s⁻¹ and 0.00129 s⁻¹ | 19400 M⁻¹ s⁻¹ and 17400 M⁻¹ s⁻¹ | B2 |
| 46.4 nM | 0.00133 s⁻¹ | 28700 M⁻¹ s⁻¹ | B6 |
| 53.6 nM and 55.2 nM | 0.00158 s⁻¹ and 0.00151 s⁻¹ | 29400 M⁻¹ s⁻¹ and 27300 M⁻¹ s⁻¹ | B4 |
| 195 nM and 197 nM | 0.00694 s⁻¹ and 0.0068 s⁻¹ | 35600 M⁻¹ s⁻¹ and 34500 M⁻¹ s⁻¹ | B3 |

| Binder | Kd | koff | kon |
| --- | --- | --- | --- |
| B5 | 22.8 nM and 23.3 nM | 0.00157 s⁻¹ and 0.00153 s⁻¹ | 68800 M⁻¹ s⁻¹ and 65900 M⁻¹ s⁻¹ |

Target: T1, MUC1 peptide (non-glycosylated), …
Assay: SPR (Biacore T200), biotinylated peptide on CAP chip, scFv as analyte

| binding result | Binder |
| --- | --- |
| no binding (tested: 500 nM) | B1 |
| no binding (tested: 500 nM) | B2 |
| no binding (tested: 500 nM) | B6 |
| no binding (tested: 500 nM) | B4 |
| no binding (tested: 500 nM) | B3 |

Target: T1, MUC1 peptide (non-glycosylated), …
Assay: Octet BLI, biotinylated peptide on streptavidin sensors
Procedure: Biotinylated MUC1 peptide (7-36-4) and TnMUC1 peptide (7-36-2) were diluted to 10 μg/ml in Octet Running Buffer (1×PBSF) and loaded onto Octet SA (streptavidin) sensors. The positive control proteins were tested in the Octet assay at a single concentration of 500 nM. All humanised anti-Tn MUC1 scFv expression supernatants were assayed neat.
Data was analysed using the data acquisition software fortéBIO version 8.0.2.5 and the data analysis software fortéBIO version 8.0.2.3.

| binding result | Binder |
| --- | --- |
| no binding (tested: neat supernatant) | B7 |
| no binding (tested: neat supernatant) | B8 |
| no binding (tested: neat supernatant) | B9 |
| no binding (tested: neat supernatant) | B10 |
| no binding (tested: neat supernatant) | B11 |
| no binding (tested: neat supernatant) | B12 |
| no binding (tested: neat supernatant) | B13 |
| no binding (tested: neat supernatant) | B14 |
| no binding (tested: neat supernatant) | B15 |
| no binding (tested: neat supernatant) | B16 |
| no binding (tested: neat supernatant) | B17 |
| no binding (tested: neat supernatant) | B18 |
| no binding (tested: neat supernatant) | B19 |

| Binder | binding result |
| --- | --- |
| B5 | no binding (tested: neat supernatant) |

Each binder was assayed against T3, TnMUC1 peptide (fully glycosylated), … (assay: SPR (Biacore T200), peptide 36-2 on CAP chip, scFv as analyte, 1:1 fit; average, restated in nM).
Procedure: as §1, §2, §3

| Kd | Binder |
| --- | --- |
| 26.7 nM | B1 |
| 70.9 nM | B2 |
| 46.4 nM | B6 |
| 54 nM | B4 |
| 196 nM | B3 |

| Binder | Kd |
| --- | --- |
| B5 | 23 nM |

What follows are binders tested against T2, STnMUC1 peptide, biotinylated (assay: SPR (Biacore T200): biotinylated STnMUC1 peptide (35-1) captured on CAP chip, scFv as analyte, 1:1 fit, average).

| Kd | koff | kon | Binder |
| --- | --- | --- | --- |
| 199 nM | 0.000435 s⁻¹ | 2200 M⁻¹ s⁻¹ | B1 |
| 196 nM | 0.000423 s⁻¹ | 2160 M⁻¹ s⁻¹ | B2 |
| 536 nM | 0.00122 s⁻¹ | 2290 M⁻¹ s⁻¹ | B3 |

Each binder was assayed against T4, TnMUC1 peptide 1 (partially glycosylated), biotinylated (assay: SPR (Biacore T200): biotinylated TnMUC1 peptide 1 (96-1) captured on CAP chip, scFv as analyte, 1:1 fit, average).
T4 construct: also called 96-1; 32A
Procedure: as §1, §2, §3

| Kd | koff | kon | Binder |
| --- | --- | --- | --- |
| 60.3 nM | 0.00135 s⁻¹ | 22500 M⁻¹ s⁻¹ | B1 |
| 51.1 nM | 0.00131 s⁻¹ |  | B2 |
| 250 nM | 0.00708 s⁻¹ | 28500 M⁻¹ s⁻¹ | B3 |

These binders were tested against T3, TnMUC1 peptide (fully glycosylated), … (assay: SPR (Biacore T200): biotinylated TnMUC1 peptide batch 65-1 captured on CAP chip, scFv as analyte, 1:1 fit, average).
Procedure: as §1, §2, §3

| Kd | koff | kon | Binder |
| --- | --- | --- | --- |
| 48.6 nM | 0.00136 s⁻¹ | 28000 M⁻¹ s⁻¹ | B1 |
| 40.7 nM | 0.00127 s⁻¹ |  | B2 |
| 208 nM | 0.00698 s⁻¹ | 33900 M⁻¹ s⁻¹ | B3 |

These binders were tested against T3, TnMUC1 peptide (fully glycosylated), … (assay: SPR (Biacore T200), peptide 36-2 on CAP chip, scFv as analyte, 1:1 fit; average).
Procedure: as §1, §2, §3

| Kd | koff | kon | Binder |
| --- | --- | --- | --- |
| 26.7 nM | 0.00137 s⁻¹ | 51500 M⁻¹ s⁻¹ | B1 |
| 70.9 nM | 0.0013 s⁻¹ | 18400 M⁻¹ s⁻¹ | B2 |
| 46.4 nM | 0.00133 s⁻¹ | 28700 M⁻¹ s⁻¹ | B6 |
| 54.4 nM | 0.00155 s⁻¹ | 28400 M⁻¹ s⁻¹ | B4 |
| 196 nM | 0.00687 s⁻¹ | 35100 M⁻¹ s⁻¹ | B3 |

| Binder | Kd | koff | kon |
| --- | --- | --- | --- |
| B5 | 23 nM | 0.00156 s⁻¹ | 67800 M⁻¹ s⁻¹ |

— patent US20230374151A1 (GlaxoSmithKline, published 2023)
